From patent US20260008817A1, “CYCLIC PEPTIDE OR SALT THEREOF, AND USES THEREOF” (FUJIFILM Corporation, priority 2023, published 2026)
Positions of bridges follow the written chain, without caps; N, C: chain ends. No end group written: not given here. COCH2 = acetyl group that carries the bridge

These substances were tested against T1, Recombinant Human FGFR1 alpha (IIIc) Fc Chimera Protein (Homo sapiens, UniProt P11362) (assay: ELISA binding affinity of enzymatically synthesized peptide to FGFR). Conditions: ELISA luminescence signal at 10 nmol/L peptide, SEQ ID NO: 239 standardized to 1; enzyme synthesis product.
T1 construct: purchased R&D systems 658-FR-050
T1 sequence (P11362 with tags, fused parts or gaps limits assumed): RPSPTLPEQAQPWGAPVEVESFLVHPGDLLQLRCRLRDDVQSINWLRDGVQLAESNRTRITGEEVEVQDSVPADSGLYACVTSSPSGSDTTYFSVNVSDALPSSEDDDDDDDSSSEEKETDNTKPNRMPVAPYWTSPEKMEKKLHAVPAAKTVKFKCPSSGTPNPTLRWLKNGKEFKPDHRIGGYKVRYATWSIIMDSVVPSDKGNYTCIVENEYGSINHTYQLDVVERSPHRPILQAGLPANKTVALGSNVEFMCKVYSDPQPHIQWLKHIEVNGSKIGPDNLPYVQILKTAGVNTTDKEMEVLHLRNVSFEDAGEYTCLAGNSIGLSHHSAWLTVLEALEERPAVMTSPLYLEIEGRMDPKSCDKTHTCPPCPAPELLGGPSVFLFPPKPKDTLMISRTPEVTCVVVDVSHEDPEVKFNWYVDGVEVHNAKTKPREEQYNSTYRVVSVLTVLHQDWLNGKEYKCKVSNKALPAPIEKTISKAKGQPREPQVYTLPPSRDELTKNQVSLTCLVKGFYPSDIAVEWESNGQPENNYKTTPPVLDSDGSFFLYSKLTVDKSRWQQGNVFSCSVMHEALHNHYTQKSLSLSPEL
Method: The binding affinity of the peptide to FGFR was evaluated using an ELISA method.
The peptide used for the evaluation was enzymatically synthesized by the following method.
First, a fusion peptide (SEQ ID NO: 25) in which a translation enhancing sequence (SEQ ID NO: 22), a peptide, a Myc tag (SEQ ID NO: 23), and a HiBiT tag (SEQ ID NO: 24) were linked in this order was designed. Next, a template DNA sequence (SEQ ID NO: 26) was designed in which a T7 promoter sequence, a Shine-Dalgarno sequence, a sequence necessary for transcription and translation initiation, such as a start codon (ATG), was provided on the 5′ terminal side of the DNA sequence encoding the fused peptide, and a stop codon group was provided on the 3′ terminal side thereof. In a case where the triplet TAG codon is included in the template DNA sequence, the above-described codon is assigned to the codon of chloroacetylated lysine, and thus, the peptide encoded by the above-described DNA sequence is a cyclic peptide in which a thiol group of cysteine and a chloroacetyl group of chloroacetylated lysine spontaneously form a thioether bond.
The cell-free enzymatic synthesis of the polypeptide was performed in a translation solution containing a template DNA, PUREfrex 2.0 (GeneFrontier, PF201-0.25-5), and Aminoacyl tRNA (1). 1.75 μL ([…]) of the template DNA prepared to 50 ng/μL, 2.5 μL of PUREfrex 2.0 Solution I, 0.25 μL of Solution II, 0.5 μL of Solution III, and a dried product of Aminoacyl tRNA (1) (final concentration: 0.5 ng/μL) were mixed and mixture was subjected to a reaction at 37° C. for 1 hour.
The concentration of the enzymatically synthesized peptide was measured using the peptide diluted with Can Get Signal Immunoreaction Enhancer Solution I (TOYOBO, NKB-101), Nano-Glo HiBiT Lytic Detection System (Promega, N3040), and a chemical synthetic peptide for a calibration curve having a known concentration (SEQ ID NO: 33) according to the standard protocol of the Nano-Glo HiBiT Lytic Detection System.
The binding affinity of the enzymatically synthesized peptide to FGFR was measured by evaluating the amount of the peptide bound to FGFR by ELISA.
First, 5 ng of Recombinant Human FGFR1 alpha (IIIc) Fc Chimera Protein (R&D systems, 658-FR-050) was immobilized in each well of a 96-well plate, and blocked with Pierce Protein-Free (PBS) Blocking Buffer (Thermo, 37572), and a peptide diluted with Can Get Signal Immunoreaction Enhancer Solution I (TOYOBO, NKB-101) was then added and reacted at room temperature for 3 hours. After washing with 0.05% Tween 20-containing phosphate buffered saline (PBS), an anti-Myc antibody (Cell Signaling, 14038S) diluted with Can Get Signal Immunoreaction Enhancer Solution II (TOYOBO, NKB-101) was added and reacted at room temperature for 2 hours. After washing with 0.05% Tween 20-containing PBS, SuperSignal ELISA Femto Substrate (Thermo, 37075) was added, and the luminescence amount was measured. The dose-response relationship was calculated from using the difference between the luminescence amount in the well in which FGFR was immobilized and the luminescence amount in the well in which FGFR was not immobilized, and the concentration of the peptide at the time of reaction, and the binding affinity to FGFR was evaluated according to the following evaluation criteria. The evaluation result preferably satisfies the evaluation criteria A, B, or C.
In a case where a value of a luminescence signal emitted by the cyclic peptide set forth in SEQ ID NO: 239 at a reaction concentration of 10 nmol/L is standardized to 1, evaluation criteria of the luminescence signal value emitted by the peptide at a reaction concentration of 10 nmol/L is as follows. • A: 0.7 or more • B: 0.5 or more and less than 0.7 • C: 0.1 or more and less than 0.5 • D: less than 0.1.

| Substance | Evaluation result of binding affinity to FGFR |
| --- | --- |
| 34 (CRALLRGAPFHLAEC; disulfide 1-15 (inferred)) [compound 34] | D (less than 0.1) |
| 35 (CDRTLLYYRLSC; disulfide 1-12 (inferred)) [compound 35] | D (less than 0.1) |
| 36 (CRALLRGAPFHLAEK; not fully specified; Description of Artificial Sequence: Cyclic peptide) [compound 36] | D (less than 0.1) |
| 37 (CDRTLLYYRLSK; not fully specified; Description of Artificial Sequence: Cyclic peptide) [compound 37] | D (less than 0.1) |
| 38 (ICVYTFDAHAHSLHAALTKI; not fully specified; Description of Artificial Sequence: Cyclic peptide) [compound 38] | A (0.7 or more) |
| 39 (ACVYTFDAHAHSLHAALTK(COCH2)I; thioether 2-19 (inferred)) [compound 39] | A (0.7 or more) |
| 40 (GCVYTFDAHAHSLHAALTK(COCH2)I; thioether 2-19 (inferred)) [compound 40] | A (0.7 or more) |
| 41 (PCVYTFDAHAHSLHAALTK(COCH2)I; thioether 2-19 (inferred)) [compound 41] | A (0.7 or more) |
| 42 (LCVYTFDAHAHSLHAALTK(COCH2)I; thioether 2-19 (inferred)) [compound 42] | A (0.7 or more) |
| 43 (VCVYTFDAHAHSLHAALTK(COCH2)I; thioether 2-19 (inferred)) [compound 43] | A (0.7 or more) |
| 44 (FCVYTFDAHAHSLHAALTK(COCH2)I; thioether 2-19 (inferred)) [compound 44] | A (0.7 or more) |
| 45 (YCVYTFDAHAHSLHAALTK(COCH2)I; thioether 2-19 (inferred)) [compound 45] | A (0.7 or more) |
| 46 (WCVYTFDAHAHSLHAALTK(COCH2)I; thioether 2-19 (inferred)) [compound 46] | B (0.5 or more and less than 0.7) |
| 47 (NCVYTFDAHAHSLHAALTK(COCH2)I; thioether 2-19 (inferred)) [compound 47] | A (0.7 or more) |
| 48 (QCVYTFDAHAHSLHAALTK(COCH2)I; thioether 2-19 (inferred)) [compound 48] | A (0.7 or more) |
| 49 (SCVYTFDAHAHSLHAALTK(COCH2)I; thioether 2-19 (inferred)) [compound 49] | A (0.7 or more) |
| 50 (TCVYTFDAHAHSLHAALTK(COCH2)I; thioether 2-19 (inferred)) [compound 50] | A (0.7 or more) |
| 51 (DCVYTFDAHAHSLHAALTK(COCH2)I; thioether 2-19 (inferred)) [compound 51] | A (0.7 or more) |
| 52 (ECVYTFDAHAHSLHAALTK(COCH2)I; thioether 2-19 (inferred)) [compound 52] | A (0.7 or more) |
| 53 (RCVYTFDAHAHSLHAALTK(COCH2)I; thioether 2-19 (inferred)) [compound 53] | A (0.7 or more) |
| 54 (HCVYTFDAHAHSLHAALTK(COCH2)I; thioether 2-19 (inferred)) [compound 54] | A (0.7 or more) |
| 55 (ICAYTFDAHAHSLHAALTK(COCH2)I; thioether 2-19 (inferred)) [compound 55] | C (0.1 or more and less than 0.5) |

| Substance | Evaluation result of binding affinity to FGFR |
| --- | --- |
| 56 (ICLYTFDAHAHSLHAALTK(COCH2)I; thioether 2-19 (inferred)) [compound 56] | B (0.5 or more and less than 0.7) |
| 57 (ICIYTFDAHAHSLHAALTK(COCH2)I; thioether 2-19 (inferred)) [compound 57] | A (0.7 or more) |
| 58 (ICFYTFDAHAHSLHAALTK(COCH2)I; thioether 2-19 (inferred)) [compound 58] | C (0.1 or more and less than 0.5) |
| 59 (ICYYTFDAHAHSLHAALTK(COCH2)I; thioether 2-19 (inferred)) [compound 59] | C (0.1 or more and less than 0.5) |
| 60 (ICTYTFDAHAHSLHAALTK(COCH2)I; thioether 2-19 (inferred)) [compound 60] | C (0.1 or more and less than 0.5) |
| 61 (ICVFTFDAHAHSLHAALTK(COCH2)I; thioether 2-19 (inferred)) [compound 61] | C (0.1 or more and less than 0.5) |
| 62 (ICVWTFDAHAHSLHAALTK(COCH2)I; thioether 2-19 (inferred)) [compound 62] | C (0.1 or more and less than 0.5) |
| 63 (ICVHTFDAHAHSLHAALTK(COCH2)I; thioether 2-19 (inferred)) [compound 63] | A (0.7 or more) |
| 64 (ICVYAFDAHAHSLHAALTK(COCH2)I; thioether 2-19 (inferred)) [compound 64] | B (0.5 or more and less than 0.7) |
| 65 (ICVYGFDAHAHSLHAALTK(COCH2)I; thioether 2-19 (inferred)) [compound 65] | C (0.1 or more and less than 0.5) |
| 66 (ICVYLFDAHAHSLHAALTK(COCH2)I; thioether 2-19 (inferred)) [compound 66] | C (0.1 or more and less than 0.5) |
| 67 (ICVYIFDAHAHSLHAALTK(COCH2)I; thioether 2-19 (inferred)) [compound 67] | C (0.1 or more and less than 0.5) |
| 68 (ICVYVFDAHAHSLHAALTK(COCH2)I; thioether 2-19 (inferred)) [compound 68] | C (0.1 or more and less than 0.5) |
| 69 (ICVYQFDAHAHSLHAALTK(COCH2)I; thioether 2-19 (inferred)) [compound 69] | B (0.5 or more and less than 0.7) |
| 70 (ICVYSFDAHAHSLHAALTK(COCH2)I; thioether 2-19 (inferred)) [compound 70] | A (0.7 or more) |
| 71 (ICVYEFDAHAHSLHAALTK(COCH2)I; thioether 2-19 (inferred)) [compound 71] | C (0.1 or more and less than 0.5) |
| 72 (ICVYRFDAHAHSLHAALTK(COCH2)I; thioether 2-19 (inferred)) [compound 72] | C (0.1 or more and less than 0.5) |
| 73 (ICVYHFDAHAHSLHAALTK(COCH2)I; thioether 2-19 (inferred)) [compound 73] | C (0.1 or more and less than 0.5) |
| 74 (ICVYTADAHAHSLHAALTK(COCH2)I; thioether 2-19 (inferred)) [compound 74] | C (0.1 or more and less than 0.5) |
| 75 (ICVYTGDAHAHSLHAALTK(COCH2)I; thioether 2-19 (inferred)) [compound 75] | C (0.1 or more and less than 0.5) |
| 76 (ICVYTYDAHAHSLHAALTK(COCH2)I; thioether 2-19 (inferred)) [compound 76] | B (0.5 or more and less than 0.7) |
